Numbering of substitutions follows the chain as printed. Each block holds one binder with its values, some of them ahead of it.
Key:
[1] = target: T1, soluble recombinant human IL-1RI (corresponding to the extracellular domain of IL-1RI) (human, UniProt P14778 18-336); assay: SPR (Reichert SR7000DC), soluble human IL-1RI; end of range tied to P02 (lowest Kd) by Table 7
T1 construct: extracellular domain; also called interleukin-1 receptor I; immobilized soluble IL-1RI
T1 sequence (looked up): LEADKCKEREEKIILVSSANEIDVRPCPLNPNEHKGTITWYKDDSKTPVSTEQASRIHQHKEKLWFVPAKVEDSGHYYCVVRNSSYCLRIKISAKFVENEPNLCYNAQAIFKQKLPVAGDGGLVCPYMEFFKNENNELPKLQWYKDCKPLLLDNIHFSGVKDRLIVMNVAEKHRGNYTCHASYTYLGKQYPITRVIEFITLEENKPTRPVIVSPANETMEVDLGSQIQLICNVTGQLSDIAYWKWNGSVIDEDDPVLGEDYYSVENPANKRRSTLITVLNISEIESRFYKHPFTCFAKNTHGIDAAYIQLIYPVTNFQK
Description: (§1) The binding properties of proteins for soluble recombinant human IL-1RI (corresponding to the extracellular domain of IL-1RI) were evaluated using surface plasmon resonance with a Reichert SR7000DC Dual Channel SPR system. Binding was evaluated in phosphate buffered saline with 0.005% Tween 20. […] Thus, the P01 protein bound to IL-1RI with a greater affinity than did IL-1β under similar conditions.
(§2) See for example FIGS. 9C and 9D and Table 7 below.

[2] = target: T1, soluble recombinant human IL-1RI …; assay: SPR (Reichert SR7000DC), soluble human IL-1RI; end of range tied to P04 by Table 7
Description: as §1, §2

[3] = target: T2, IL-1RI on HEK-Blue IL-1β responsive cells (UniProt P14778 18-569); assay: cell-based or functional assay
T2 sequence (looked up): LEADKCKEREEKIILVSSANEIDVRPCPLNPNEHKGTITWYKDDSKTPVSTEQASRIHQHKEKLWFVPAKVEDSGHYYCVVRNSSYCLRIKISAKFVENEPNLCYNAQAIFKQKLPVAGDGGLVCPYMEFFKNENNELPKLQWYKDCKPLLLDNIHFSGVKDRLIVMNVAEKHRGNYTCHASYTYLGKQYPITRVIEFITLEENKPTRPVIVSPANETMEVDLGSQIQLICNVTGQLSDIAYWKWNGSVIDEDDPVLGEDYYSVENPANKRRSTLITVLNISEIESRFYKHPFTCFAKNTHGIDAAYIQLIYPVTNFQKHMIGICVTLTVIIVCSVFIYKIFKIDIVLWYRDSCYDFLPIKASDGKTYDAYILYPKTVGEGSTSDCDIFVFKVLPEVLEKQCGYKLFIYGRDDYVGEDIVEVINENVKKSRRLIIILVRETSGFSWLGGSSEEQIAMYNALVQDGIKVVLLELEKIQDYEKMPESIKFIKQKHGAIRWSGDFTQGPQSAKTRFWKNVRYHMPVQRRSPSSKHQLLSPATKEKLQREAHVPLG

[4] = target: T1, soluble recombinant human IL-1RI …; assay: SPR (Reichert SR7000DC), soluble human IL-1RI; end of range tied to P03 (highest Kd) by Table 7
Description: as §1, §2

- koff [1]: 2e-05 s⁻¹
B1: P02 (designed binder)
chain: APVRSLAFRIWDVNQKTFYLRNNQLVAGYLQGPNVNLEEKIDVSFVQGEESNDKIPVALGIHGGKMCLSCVKSGDETRLQLEAVDPKNYPKKKMEKRFVFNKIEINNKLSFESAACPGWFLCTAMEADQPVSLTNMPDEGVMVTKFYMQFVSS
notes: Chimeric IL-1β/IL-1Ra cytokine domain expressed in E. coli; also called P02 domain

- Kd [2]: 1.7 nM
- kon [2]: 30000 M⁻¹ s⁻¹
B2: P04 (designed binder)
chain: APVRSLAFRIWDVNQKTFYLRNNQLVAGYLQGPNVNLEEKFSMSFVQGEESNDKIPVALGLKEKNLYLSCVLKDDKPTLQLESVDPKNYPKKKMEKRFVFNKIEINNKLEFESAACPGWFLCTAMEADQPVSLTNMPDEGVMVTKFTMQFVSS
notes: Chimeric IL-1β/IL-1Ra cytokine domain expressed in E. coli; Both hexa-histidine tagged and untagged forms were made; also called P04 domain

- IC50 of antagonism of IL-1β activity, SEAP reporter in HEK-Blue IL-1β cells [3]: < 5 ng/mL
B3: P05 (designed binder)
chain: B2 chain with A7N, F8C, A115Q, C116F, G118N, T147Y

- koff [4]: 0.001 s⁻¹
B4: P03 (designed binder)
chain: B2 chain with N101I, K102R, I103S, E104D, I105S, N106G, N107P, K108T, L109T, E110S
notes: Chimeric IL-1β/IL-1Ra cytokine domain expressed in E. coli; Both hexa-histidine tagged and untagged forms were made; also called P03 domain

— patent publication US20130209396A1 (ELEVEN BIOTHERAPEUTICS, published 2013)
